# Data published in the supplement of paper PMC11780869.
# Test system: Bacillus subtilis
# Test: cleaved RNA product abundance (RNA/gDNA barcode ratio) relative to median wild-type variant (ratio to wild type); higher = more accumulation of the downstream cleavage product
# Settings: cleavage site: cggR-gapA (positions -7 to +36 mutated)
# In short: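 Cleaved product abundance is expressed as the RNA:gDNA barcode ratio per construct, scaled to the median construct carrying the unmutated site. The constructs were barcoded, mutagenized RNase Y cleavage-site windows in truncated aprE or tetM reporter mRNAs integrated into the B. subtilis chromosome. Cultures grew in LB at 37°C from OD600 0.0003 to 0.3 before cleaved RNA was gel-selected and barcode-sequenced.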
# [1] = experiment (reporter, strain, medium): exp 4a: truncated aprE reporter, strain BJT201 with 2% xylose (RNase J1 expressed)
# [2] = experiment (reporter, strain, medium): exp 6: tetM reporter, strain 168
# [3] = experiment (reporter, strain, medium): exp 2b: truncated aprE reporter, strain BJT200
Sequence,cleaved RNA product abundance [1],cleaved RNA product abundance [2],cleaved RNA product abundance [3]
ACAGACGAAGGAGCCGCAAATAAGTTATTAAGGGATCAATAATCCCTCAATATAAATATCTCTCACTTATTTAAA,0.721,0.865,–
ACAGACGAAGGAGCCGCAAATAAGTTATTAAGGGATGAAAAATCCCTCAATATAAATATCTCTCACTTATTTAAA,0.841,0.882,0.805
ACAGACGAAGGAGCCGCAAATAAGTTATTAAGGGATGAACAATCCCTCAATATAAATATCTCTCACTTATTTAAA,0.924,–,0.897
ACAGACGAAGGAGCCGCAAATAAGTTATTAAGGGATGAATAAACCCTCAATATAAATATCTCTCACTTATTTAAA,0.39,–,–
ACAGACGAAGGAGCCGCAAATAAGTTATTAAGGGATGAATAACCCCTCAATATAAATATCTCTCACTTATTTAAA,0.494,–,0.582
ACAGACGAAGGAGCCGCAAATAAGTTATTAAGGGATGAATAAGCCCTCAATATAAATATCTCTCACTTATTTAAA,0.476,–,–
ACAGACGAAGGAGCCGCAAATAAGTTATTAAGGGATGAATAATACCTCAATATAAATATCTCTCACTTATTTAAA,0.165,–,0.112
ACAGACGAAGGAGCCGCAAATAAGTTATTAAGGGATGAATAATCACTCAATATAAATATCTCTCACTTATTTAAA,0.107,–,0.118
ACAGACGAAGGAGCCGCAAATAAGTTATTAAGGGATGAATAATCCATCAATATAAATATCTCTCACTTATTTAAA,0.261,–,0.172
ACAGACGAAGGAGCCGCAAATAAGTTATTAAGGGATGAATAATCCCACAATATAAATAACTCTCACTTATTTAAA,0.22,–,–
ACAGACGAAGGAGCCGCAAATAAGTTATTAAGGGATGAATAATCCCACAATATAAATATCTCTCACTTATTTAAA,0.187,–,0.233
ACAGACGAAGGAGCCGCAAATAAGTTATTAAGGGATGAATAATCCCCCAATATAAATATCTCTCACTTATTTAAA,0.23,–,–
ACAGACGAAGGAGCCGCAAATAAGTTATTAAGGGATGAATAATCCCTAAATATAAATATCTCTCACTTATTTAAA,0.865,–,0.668
ACAGACGAAGGAGCCGCAAATAAGTTATTAAGGGATGAATAATCCCTCAAAATAAATATCTCTCACTTATTTAAA,0.322,–,0.34
ACAGACGAAGGAGCCGCAAATAAGTTATTAAGGGATGAATAATCCCTCAACATAAATATCTCTCACTTATTTAAA,0.401,–,–
ACAGACGAAGGAGCCGCAAATAAGTTATTAAGGGATGAATAATCCCTCAAGATAAATATCTCTCACTTATTTAAA,0.373,–,–
ACAGACGAAGGAGCCGCAAATAAGTTATTAAGGGATGAATAATCCCTCAATAAAAATATCTCTCACTTATTTAAA,0.143,–,–
ACAGACGAAGGAGCCGCAAATAAGTTATTAAGGGATGAATAATCCCTCAATACAAATATCTCTCACTTATTTAAA,0.106,–,–
ACAGACGAAGGAGCCGCAAATAAGTTATTAAGGGATGAATAATCCCTCAATATAAACATCTCTCACTTATTTAAA,0.822,–,0.822
ACAGACGAAGGAGCCGCAAATAAGTTATTAAGGGATGAATAATCCCTCAATATAAAGATCTCTCACTTATTTAAA,0.565,–,0.535
ACAGACGAAGGAGCCGCAAATAAGTTATTAAGGGATGAATAATCCCTCAATATAAATAACTCTCACTTATTTAAA,0.44,–,–
ACAGACGAAGGAGCCGCAAATAAGTTATTAAGGGATGAATAATCCCTCAATATAAATACCTCTCACTTATTTAAA,0.538,–,–
ACAGACGAAGGAGCCGCAAATAAGTTATTAAGGGATGAATAATCCCTCAATATAAATATATCTCACTTATTTAAA,0.814,–,–
ACAGACGAAGGAGCCGCAAATAAGTTATTAAGGGATGAATAATCCCTCAATATAAATATCTCTCACTTATTTAAA,0.932,1.07,0.972
ACAGACGAAGGAGCCGCAAATAAGTTATTAAGGGATGAATAATCCCTCAATATAAATGTCTCTCACTTATTTAAA,0.45,–,–
ACAGACGAAGGAGCCGCAAATAAGTTATTAAGGGATGAATAATCCCTCAATATAAATTTCTCTCACTTATTTAAA,0.862,–,–

Sequence,cleaved RNA product abundance [1],cleaved RNA product abundance [2],cleaved RNA product abundance [3]
ACAGACGAAGGAGCCGCAAATAAGTTATTAAGGGATGAATAATCCCTCAATATAATTATCTCTCACTTATTTAAA,0.477,–,0.515
ACAGACGAAGGAGCCGCAAATAAGTTATTAAGGGATGAATAATCCCTCAATATACATATCTCTCACTTATTTAAA,0.64,–,0.727
ACAGACGAAGGAGCCGCAAATAAGTTATTAAGGGATGAATAATCCCTCAATATAGATATCTCTCACTTATTTAAA,0.649,–,0.715
ACAGACGAAGGAGCCGCAAATAAGTTATTAAGGGATGAATAATCCCTCAATATATATATCTCTCACTTATTTAAA,0.9,–,–
ACAGACGAAGGAGCCGCAAATAAGTTATTAAGGGATGAATAATCCCTCAATATTAATATCTCTCACTTATTTAAA,0.156,–,–
ACAGACGAAGGAGCCGCAAATAAGTTATTAAGGGATGAATAATCCCTCAATGTAAATATCTCTCACTTATTTAAA,0.178,–,–
ACAGACGAAGGAGCCGCAAATAAGTTATTAAGGGATGAATAATCCCTCAATTTAAATATCTCTCACTTATTTAAA,0.136,–,–
ACAGACGAAGGAGCCGCAAATAAGTTATTAAGGGATGAATAATCCCTCACTATAAATATCTCTCACTTATTTAAA,0.218,–,0.193
ACAGACGAAGGAGCCGCAAATAAGTTATTAAGGGATGAATAATCCCTCAGTATAAATATCTCTCACTTATTTAAA,0.303,–,–
ACAGACGAAGGAGCCGCAAATAAGTTATTAAGGGATGAATAATCCCTCATTATAAATATCTCTCACTTATTTAAA,0.356,–,–
ACAGACGAAGGAGCCGCAAATAAGTTATTAAGGGATGAATAATCCCTCCATATAAATATCTCTCACTTATTTAAA,0.333,–,0.274
ACAGACGAAGGAGCCGCAAATAAGTTATTAAGGGATGAATAATCCCTCGATATAAATATCTCTCACTTATTTAAA,–,–,0.459
ACAGACGAAGGAGCCGCAAATAAGTTATTAAGGGATGAATAATCCCTCTATATAAATATCTCTCACTTATTTAAA,0.439,–,0.34
ACAGACGAAGGAGCCGCAAATAAGTTATTAAGGGATGAATAATCCCTTAATATAAATATCTCTCACTTATTTAAA,0.452,–,–
ACAGACGAAGGAGCCGCAAATAAGTTATTAAGGGATGAATAATCCGTCAATATAAATATCTCTCACTTATTTAAA,0.299,–,–
ACAGACGAAGGAGCCGCAAATAAGTTATTAAGGGATGAATAATCCTTCAATATAAATATCTCTCACTTATTTAAA,–,–,0.395
ACAGACGAAGGAGCCGCAAATAAGTTATTAAGGGATGAATAATCGCTCAATATAAATATCTCTCACTTATTTAAA,0.121,–,–
ACAGACGAAGGAGCCGCAAATAAGTTATTAAGGGATGAATAATCTCTCAATATAAATATCTCTCACTTATTTAAA,0.758,–,0.613
ACAGACGAAGGAGCCGCAAATAAGTTATTAAGGGATGAATAATGCCTCAATATAAATATCTCTCACTTATTTAAA,0.145,–,–
ACAGACGAAGGAGCCGCAAATAAGTTATTAAGGGATGAATAATTCCTCAATATAAATATCTCTCACTTATTTAAA,0.547,–,–
ACAGACGAAGGAGCCGCAAATAAGTTATTAAGGGATGAATACTCCCTCAATATAAATATCTCTCACTTATTTAAA,0.538,–,0.682
ACAGACGAAGGAGCCGCAAATAAGTTATTAAGGGATGAATAGTCCCTCAATATAAATATCTCTCACTTATTTAAA,0.887,–,0.852
ACAGACGAAGGAGCCGCAAATAAGTTATTAAGGGATGAATATTCCCTCAATATAAATATCTCTCACTTATTTAAA,1.07,–,0.769
ACAGACGAAGGAGCCGCAAATAAGTTATTAAGGGATGAATCATCCCTCAATATAAATATCTCTCACTTATTTAAA,0.899,–,0.769
ACAGACGAAGGAGCCGCAAATAAGTTATTAAGGGATGAATTATCCCTCAATATAAATATCTCTCACTTATTTAAA,0.737,–,0.711
